Laboratory results published in patent publication US20230183338A1.

Target: VEEV p62-E1 (Venezuelan equine encephalitis virus, TrD strain) (UniProt P09592)
Experiment: surface plasmon resonance (Biacore T200), […]

For “HRV-cleaved monovalent LDLRAD3(D1) (from UniProt A2AR95 18-70) (receptor)”, which Kd is on record?
The Kd was 0.209 µM.
